Test results from publication PMC10308643, “Nesfatin-3 possesses divalent metal ion binding properties, which remain hidden in the nucleobindin-2 precursor protein” (Cell Communication and Signaling : CCS, 2023).
Where “and” joins values, the source holds several entries; their conditions need not be identical. Identical values can stand only once.

Legend:
[1] = biological target: nesfatin-3 from Gallus gallus (Gallus gallus); assay: AUC; sedimentation velocity, c(s) analysis; 0.5, 0.75 and 1.0 mg/ml protein in 20 mM Tris pH 7.5, 150 mM NaCl, 100 µM ZnCl2; 20 °C, 50 000 rpm; monomer-dimer(-tetramer)
[2] = biological target: nesfatin-3 from Gallus gallus (Gallus gallus); assay: AUC; sedimentation velocity, c(s) analysis; 0.5, 0.75 and 1.0 mg/ml protein in 20 mM Tris pH 7.5, 150 mM NaCl, 10 mM CaCl2; 20 °C, 50 000 rpm; monomer-dimer
[3] = biological target: nesfatin-3 from Gallus gallus (Gallus gallus); assay: AUC; sedimentation velocity, c(s) analysis; 0.5, 0.75 and 1.0 mg/ml protein in 20 mM Tris pH 7.5, 150 mM NaCl, 800 µM ZnCl2; 20 °C, 50 000 rpm; monomer-dimer(-tetramer)
[4] = biological target: nesfatin-3 from Gallus gallus (Gallus gallus); assay: AUC; sedimentation velocity, c(s) analysis; 0.5, 0.75 and 1.0 mg/ml protein in 20 mM Tris pH 7.5, 150 mM NaCl, 5 mM EDTA (apo form); 20 °C, 50 000 rpm; monomer-dimer
[5] = biological target: nesfatin-3 from Gallus gallus (Gallus gallus); assay: AUC; sedimentation velocity, c(s) analysis; 0.5, 0.75 and 1.0 mg/ml protein in 20 mM Tris pH 7.5, 150 mM NaCl, 300 µM ZnCl2; 20 °C, 50 000 rpm; monomer-dimer
[6] = biological target: nesfatin-3 from Gallus gallus (Gallus gallus); assay: AUC; sedimentation velocity, c(s) analysis; 0.5, 0.75 and 1.0 mg/ml protein in 20 mM Tris pH 7.5, 150 mM NaCl, 10 mM MgCl2; 20 °C, 50 000 rpm; monomer-dimer
[7] = biological target: the molecule itself; assay: as above
[8] = biological target: the molecule itself; assay: AUC; sedimentation velocity, c(s) analysis; 0.5, 0.75 and 1.0 mg/ml protein in 20 mM Tris pH 7.5, 150 mM NaCl, 5 mM EDTA (apo form); 20 °C, 50 000 rpm; monomer-dimer
[9] = biological target: the molecule itself; assay: as above; remark: listed apart in the source

Row | percent dimer [1] | percent dimer [2] | percent dimer [3] | percent dimer [4] | stoichiometry N [4] | percent dimer [5] | dimer-to-monomer ratio (dimer:monomer) [6] | percent dimer [6] | Molecule | percent dimer [7] [%] | stoichiometry N [8] | percent dimer [9] [%]
1 | 74% and 80% and 79% | 76% and 77% and 74% | 90% and 91% and 88% | 75% and 76% and 77% | 2 | 59% and 64% and 70% | 9 | 100% and 83% and 92% | nesfatin-3 from Gallus gallus (domain or fragment) | – | – | –
2 | – | – | – | – | – | – | – | – | nesfatin-3 from Homo sapiens (domain or fragment, UniProt P80303 190-420, looked up, also called hsNesfatin-3; apo-hsNesfatin-3; source: expressed from pQE-80L/HRV3C and purified as reported previously [16, 17]) EYLKTLNEEKRKEEESKFEEMKKKHENHPKVNHPGSKDQLKEVWEETDGLDPNDFDPKTFFKLHDVNSDGFLDEQELEALFTKELEKVYDPKNEEDDMVEMEEERLRMREHVMNEVDTNKDRLVTLEEFLKATEKKEFLEPDSWETLDQQQFFTEEELKEYENIIALQENELKKKADELQKQKEELQRQHDQLEAQKLEYHQVIQQMEQKKLQQGIPPSGPAGELKFEPHI | 100 | 2 | 100
